The values below come from the DeepSol protein solubility set.

The nature of this data set: soluble on expression in E. coli; label from the status in PepcDB or PDB records.
Turning to “MLQHYSVSWKKGLAALCLLAVAGLSGCDQQENAAAKVEYDGLSNSQPLRVDANNHTVTMLVQINGRFLTDDTRHGIVFKDGSNGHKSLFMGYATPKAFYEALKEAGGTPGENMTMDNKETTHVTGSKLDISVNWQGAAKAYSFDEVIVDSNGKKLDMRFGGNLTAAEEKKTGCLVCLDSCPVGIVSNATYTYGAVEKRGEVKFKGNASVLPADNTLATVTFKIAE”, the “soluble on expression in E. coli” value is on record as “soluble”. In the case of “MCPRTSCRFYPFTIDFGTFRMAIIHAKSMTIPTSKLVAFSDKFLQNLRCFNCAVMDIVKNDATLPLGHLEEYTPGNRIGNWIGPVKGINIPSHLKADFRKSQPLSITRSVREAEWCTPFINCTQYYICINHLFAERIATKLRQVMGHTMISNCVSLLYLTGDFRRSSRFSGPIESANITSNLEEHCWHSIVLDFFDFICINSMRAIIEGKYQCFRRFITKYLMFAFFNWYRISFENSIIMQNHFTCVRTTQMRHVVIPLFTLNKDSSITIKRNRPSNFLIVVALNLICLEHHHHHH” it was “not soluble”; in that of “MENGEVLISGYRIPYSYAAMPGVKKNLVIIDIKGDEIWQKLRAADRINEWKINVYIPHFIAGSKEVVDSEPSSNLDSAGEFYYNFVQAMRLKNVMLMGEGINADVALKCSMIHPERFSNVIAIDGTGYDGYAEELYRVQKPVLLVWGGARGYRETMIGQSYHDLIAGSVFKVFDNSKRPLEDSTDRFFSMLKNYIAVD”, “not soluble”; in that of “SLNSVKRVGGSNRYGTAVQISKQMYSTASTAVIVGGSSYADAISAAPLAYQKNAPLLYTNSDKLSYETKTRLKEMQTKNVIIVGGTPAVSSNTANQIKSLGIS”, “not soluble”. The entry for “TTPAPESNRKYIIAVTACPTGIAHTYMAEDALKKKAKEMGVDIKVETNGSEGIKNRLTAEDIARADGVIVAADKKVEMNRFDGKKLVNRPVSDGIRKTEELINLAISGEAPTFHGSDSAA” is “not soluble”; for “MSLRINGQAELSGANTFLQAQVQLTGEVEIKLQKPLQLTAAKAATEIHLRIPDFVVWKDLFESTPFAVPAPLHVLTGDIELDVHAQLTDLDSPLQADATAQSRLSSKNQKLFVKATADLETLGKILKPRGLKVHADVVLQDVHLQAPPLRLAVPPQVLPDKRFVMRKDLDIIEEEKPAPTSRIPFELLWSVNIKTEKPVLISSNLLQSPVPVALDMQVQSDRKPQGKVMVQSFPFEFFRKKATVNNVDLIFHPDTVAPELSGKISYSNPEVNIRILLLGNTQRPIVNLESDPQLNQQQILSVLLFDKSLDELNEDEVNSTSNMSRAVSDGALGLFSLMFLSSTPIQSISYDPNSQSYTARMRLDDNTTFSMQSNMTEQRQFTLRRRLGGNWSVRTELSQEDSRADVVQTLLEWMRRFEGHHHHHH” it is “not soluble”; for “MPDQPSHNPAEHTTGEAPAPDALRADARRNRERVLEAAREVFSARGVDAPMSAVARRAGVGVATLYRRFPTRSSLVAAAFDDQLTVCAAAFDEALADPDPGHGLYTLLRKVCTTLVTDRGFETVFMAGFPASLDYDRERACAEERLAHLVRRARDAGRLREDFSPADIPLLLLAVSGLASQPPETAVPAAHRLLTYLFQSFQADPPPRPAPLPPAPTLDLSGLHRPAERP” it is “not soluble”. In the case of “MSKPGQTILVALRKMIASGELAAGERLMEVPTAELFGVSRMPVRMAFRTLEQEGLLVPFGGRGFQVRSISPQEIAGAVDVRGVLEGLAARQMAERGLTQDARDALEACLVQGDALFDKGYVTEDDLEVYHDMNMRLHQVIVAGSGNRAIADALARNDHLPFASVTALAVDRHNLIREYRRFNFAHMQHHAVVDALINGQGARAEALMREHANATLRYADIFGAGVHERMKVIQRPD” it was “not soluble”; in that of “MSLKKKLLLMVSVLAVLFVAAACSSKPEAKINTEPYSDRQTMLGTYVQIRIYDDGKEDVLPKAFARVKELGDKITVNQPGSEIDEINQEAGVKPVKVSDDLYPLLKKAYEYSKDSRGGFDMAIGPITSMWHIGFDDARKPSQAEIDQALKLVDYTKVKFNDKEQTVYLEEKGMQLDLGAIAKGFITDEVVKVLKDNGVTTAIVDLGGNVYVLGHSPRGKDMDWTVGIQDPNKARNTVLGQVKESNKTLVTSGIYERYLKVDGKTYHHLFDRETGYPFDNDIAGVTIITDKSIDGDGLSTAVFSMGVKKGLEYVESLKGTDAIFVTKDDKVYISKDIEGNFEIGKDSGYTMGNRADLKEGGSHHHHHH”, “soluble”; in that of “RYWQLEVAPRRRADPPEALLELLDRSVTARMQGGPVGSMLSGGLDSGTVSMLASRRSEGPLPVISMKFDDHPEIDESEWIAKIHAAGRFRPVWIDGRDAHGGDVAELLAEQGGPFFAPNLATSRWLYRRAAEAGVEILLDGHGGDEVISFGVARLTELASEAQWRTLWQSTAAVSDLFGGSRREFFLNSMAQGAQSRWLRAMARRLNVGAKRDPRAWRQALHPALVARTGLVQRVQEAAGARKRGATDDIRQHVATLTAPRYPTTLEVLDRAATLCGIEPRYPFLERRLIEHCVAQPAAAKFHDGMTRALLRDAVRGLLPDEVRLRTSKTNFTPNVRARMLTSWGDNLNRIAGCNPGRIGDYVDLAVIREGIQRLRAGEPDQPALLQTMRAVVLDEWLR”, “not soluble”. As to “MAFQLEMVTRETVVIRLFGELDHHAVEQIRAKISTAIFQGAVTTIIWNFERLSFMDSSGVGLVLGRMRELEAVAGRTILLNPSPTVRKVFQFSGLGPWMMDATEEEAIDRVRGIVNG”, the “soluble on expression in E. coli” value was “soluble”. Take “MGSDKIHHHHHHMQPFSSYTVREVIKGGNSMELRSFGNTDIQVSPLGFGAGHIGSDDLSDQEASYILHQALDTGIRLFDTARGYGLSEKRLGQFLKQRRHDVVLSTKVGYDVPRTEDWTFQAVAGGIDQALLTMQTDFIDIVHLHSCSKEILAQDDVIEALERAKQAGKVRLIAYSGDREDLDYAITTGRFDSFQTSVNLYDQRALMDSVPLIHQQQKGIIAKRPIANAPWRFASRPVGQYVEPYWERAQQLDFPLEEASWLETALRFTVFEPGVTSAIIGTANPEHLVQNIRLLEKGALPAERVADLKRRFQEQDENWLQQT”: the “soluble on expression in E. coli” value was “not soluble”. The entry for “MHVNKKIIYVSHDAHFHGAQLLSLHTIKALKENFHYSVAIISIRTGILIHDFQKYGPVYCLEEDYPTENKVESLIKKLLSQDYTIAICSTVISGDIVALLAKHNIKVISLIHELPHLIQQYSAEGKARKIAESAHKIVFPSQYVYEKFHTITQLDHQKCHILPQGLFNHNPYKNNIAKARNELRKKHNLPLDSKIILGVGFADHRKGIDLFSLIAYSVRKIHKNIHFIWVGKTDVHFLNTLSQRYTAHFTLVEPTPDIGLYNAGADLYLLTSREDPFPNVVLEALDTKVPVIGFKNAGGFGDVVTEQTGALVDYLNLPMMLEKIYEFIGDEDLRLQKGTFGQELIEKNFNFLHYIYQLLNLLEHNYKKISVIVPNYNYEKYLSERVKSILNQTYPLYELIFLDDASTDNSVSIFEKLLSNENKHHLKIQQIINDKNSGSVFKQ” is “not soluble”; for “MKKFTCVQDIGDLKSALAESFEIKKDRFKYVELGRNKTLLMIFFNSSLRTRLSTQKAALNLGMNVIVLDINQGAWKLETERGVIMDGDKPEHLLEAIPVMGCYCDIIGVRSFARFENREYDYNEVIINQFIQHSGRPVFSMEAATRHPLQSFADLITIEEYKKTARPKVVMTWAPHPRPLPQAVPNSFAEWMNATDYEFVITHPEGYELDPKFVGNARVEYDQMKAFEGADFIYAKNWAAYTGDNYGQILSTDRNWTVGDRQMAVTNNAYFMHCLPVRRNMIVTDDVIESPQSIVIPEAANREISATVVLKRLLENLPHHHHHH” it is “soluble”; for “MAHHHHHHMSRLLKHYGSCKTAFFCCDIQEKFMGRIANSANCVFVANRFAGLHTALGTAHSVYIVTEQYPKGLGATSADIRLPPDAHVFSKKRFAMLVPQVMPLVDLPEVEQVVLWGFETHVCILQTAAALLDMKKKVVIAVDGCGSQSQGDHCTAIQLMQSWSGDGCYISTSESILMQLLKDASDPVFKTIAPLMKQTHPIRI” it is “soluble”. In the case of “MGSDKIHHHHHHMLSAKIEVYDSRFYQLVGTEARLEELFDKAIWAEGPVWLEKQQAVIFSDVKGNTMYRWTAEQGTQIFRQPSQFANGNAVDAAGNLITCEHGRRAISLTDHAGNIRVLVNKLEGKRLNSPNDVVVKSDGTIWFTDPPYGILSDAEGKKSPSEIIGCYVYCYDPITDDIHIATFNVMRPNGLAFCENETKLVVADMSVVEFKRTGLHHLVVFDVIDNQLYNRTSIAAISPGIPDGFCIDHNNVIYCSCETGLLVLLLDGTFLGRILLDKTASNCTFGLDQKTLFITATNSLYCLTFK” it was “not soluble”; in that of “MIYRFTIISDEVDDFVREIQIDPEATFFDLHEAILKAANYTNDQMTSFFICDDDWEKEKEITLEEMDNNPEMDSWIMKETRLNELIEDEKQKLLYVFDYMTERCFFIELSEIITGKEIKGAKCTKKSGEAPKQTVDFEEMAAGGGSLDLDENFYGDQDFDMEDFDAEGFDVNDGAAGGGSSYDEDKFLEHHHHHH”, “soluble”. Take “MGSDKIHHHHHHMQNGYYQATGGMVTQFNKLDVITNNLANINTSGYKRDDVVIADFKRIFKETQDELPIENHTRDASRFVNTTIDGIPQVSQEYTDFSLGSLKATNNPLDLAMTREDAFYLVQTKDGEVRLTKDGNFQLDDEGYLVNKQGYKVLSSDYFNNPQNAGIRIPNGAVQISVDKNGSIEVDGAQNARLFVAQVDDIRALQKDGDNVYKIDDLTRIRDLKNSNAIRQGFSQGSNVNPVTEMVGLIEANRMVEMYQKVMTAHMDDLNQEAINKLAAVK”: the “soluble on expression in E. coli” value was “not soluble”. Consider “MTTLSHVEALCALEQPYRADAECDRLFDAAMRELVDYHCEHSPGYRRWLEQNGFTPERLAGLSDWSQLPPIFANYFKRRLLLSTSGEDALELTSSGTTGQKSRMRYDERSIGAAQRMVDRIFDHYGWNTPQQPCNYLLLSYEPAGAITLGTAYTDQFLCKYAPVKRAVYALRHNGKGNEFDPFGAIRALQEFAAEGLPVRIFGFPAFLWFALERMRDMGLPPLALHPESLVFLGGGWKTHADQAIPKAELYRRLGEQLGLPDARCRDGYGSVEHPVPYVECTNHRFHVPSWARAWARDTATLARLPYGEAGFLHLVSPYITSSPAHSMLLSDLAVLQLAERCGCGLATDWFELLGRAGTSKSRSCAMAASELIKESLEHHHHHH”, for which the “soluble on expression in E. coli” value is on record as “soluble”. The entry for “GPGSMSDVDDLIEELFPKKEGGRAPPEGKGGAACEPPASQSNWDDTDEANSEAETTTRNRGTSVSLEAAASTTANVGDGRGEDFDDSDESVEETVMGGRHTVPFPPTPGNMSMACNSKCFVTNVGSGELRHPSVAQLLLTGEGKYDKCSSNEQLLLRKGAFHALKADAGNGCTDKTADEDGRKGGCPFILCRKCNYTVIRLQDAEWDDEEGKMDLYLTVRNFYPDWSRLASSLPVGQMRRGEQNTVLKTCPDSAAYCCQCSWLTVKCAQEVIDTRVTDHTKFVGKELTCCFATQLPLISGEKRRPPLWVCGGHVPKH” is “soluble”; for “MVKVTAACIIIGDEVLNGKVVDTNSTFFAKYCFDHGIQLKEIATIGDDETQIVDTVRRLVKNYDFIISTGGIGPTHDDITYECMAKSFNLPCELDEECKERMRHKSDPEARLDADALKAHYQMATMPKGTNVKNYYVCDDLWVPICSISHKMYILPGIPQLFARMLKAFTPTLKKIYNLDKDPREYVRYFVRTHLTESQISKELKLIQDESTKVSEAIKIGSYPHFGMGFNTVSILGEKKDDSYLKSIVNRVVNNLEGEVISSELENKFSNQES” it is “not soluble”.
